Columns and labels:
CD94/NKG2C = CD94/NKG2C (UniProt Q13241); assay: SPR steady state, Biacore T200, pMHC single chain trimer immobilized, CD94/NKG2C analyte
CD94/NKG2A = CD94/NKG2A (UniProt Q13241); assay: SPR steady state, Biacore T200, pMHC single chain trimer immobilized, CD94/NKG2A analyte

Substance | Kd (CD94/NKG2C) [µM] | Kd (CD94/NKG2A) [µM]
AKAP6388-396 peptide-HLA-E complex (single chain trimer) (from UniProt P61769 21-119; P13747 22-297) (peptide-MHC) | 15.6 | 4.1
BFAR263-271 peptide-HLA-E complex (single chain trimer) (from UniProt P61769 21-119; P13747 22-297) (peptide-MHC) | 1.8 | 0.8
CREB3L1419-427 peptide-HLA-E complex (single chain trimer) (from UniProt P61769 21-119; P13747 22-297) (peptide-MHC) | 9.8 | 3.3
GTF3C5293-301 peptide-HLA-E complex (single chain trimer) (from UniProt P61769 21-119; P13747 22-297) (peptide-MHC) | 92.4 | 28.1
PISD55-63 peptide-HLA-E complex (single chain trimer) (from UniProt P61769 21-119; P13747 22-297) (peptide-MHC) | 16 | 12.1

Source: patent publication US20240092835A1, “NOVEL PEPTIDES CAPABLE OF ALTERING NK CELL ACTIVITY” (Massachusetts Institute of Technology, priority 2022, published 2024)
